T1: human matriptase-2 mask ECD protein his tag (human, UniProt Q8IU80 78-576)
T1 construct: MTP-2 ECD without the serine protease domain, with C-terminal linker and His tag; also called headless huMTP-2 ECD 78-576 aa; headless human MTP-2 ECD
T1 sequence: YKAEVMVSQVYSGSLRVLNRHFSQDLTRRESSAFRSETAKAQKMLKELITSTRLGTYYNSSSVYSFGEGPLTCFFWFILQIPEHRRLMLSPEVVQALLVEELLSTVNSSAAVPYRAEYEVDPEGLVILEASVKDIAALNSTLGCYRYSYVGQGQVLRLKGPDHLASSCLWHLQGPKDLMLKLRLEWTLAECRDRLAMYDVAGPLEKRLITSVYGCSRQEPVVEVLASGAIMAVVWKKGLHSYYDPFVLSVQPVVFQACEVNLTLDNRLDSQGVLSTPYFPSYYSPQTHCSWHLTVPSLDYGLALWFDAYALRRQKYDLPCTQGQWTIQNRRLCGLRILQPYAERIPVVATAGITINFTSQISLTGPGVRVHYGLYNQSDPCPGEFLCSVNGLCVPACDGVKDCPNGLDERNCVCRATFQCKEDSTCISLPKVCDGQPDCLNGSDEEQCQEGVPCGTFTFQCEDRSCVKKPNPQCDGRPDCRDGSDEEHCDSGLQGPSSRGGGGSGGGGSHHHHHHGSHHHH

T2: human matriptase-2 ECD protein his tag (human, UniProt Q8IU80 78-811)
T2 construct: also called human MTP-2 ECD; huMTP-2
T2 sequence: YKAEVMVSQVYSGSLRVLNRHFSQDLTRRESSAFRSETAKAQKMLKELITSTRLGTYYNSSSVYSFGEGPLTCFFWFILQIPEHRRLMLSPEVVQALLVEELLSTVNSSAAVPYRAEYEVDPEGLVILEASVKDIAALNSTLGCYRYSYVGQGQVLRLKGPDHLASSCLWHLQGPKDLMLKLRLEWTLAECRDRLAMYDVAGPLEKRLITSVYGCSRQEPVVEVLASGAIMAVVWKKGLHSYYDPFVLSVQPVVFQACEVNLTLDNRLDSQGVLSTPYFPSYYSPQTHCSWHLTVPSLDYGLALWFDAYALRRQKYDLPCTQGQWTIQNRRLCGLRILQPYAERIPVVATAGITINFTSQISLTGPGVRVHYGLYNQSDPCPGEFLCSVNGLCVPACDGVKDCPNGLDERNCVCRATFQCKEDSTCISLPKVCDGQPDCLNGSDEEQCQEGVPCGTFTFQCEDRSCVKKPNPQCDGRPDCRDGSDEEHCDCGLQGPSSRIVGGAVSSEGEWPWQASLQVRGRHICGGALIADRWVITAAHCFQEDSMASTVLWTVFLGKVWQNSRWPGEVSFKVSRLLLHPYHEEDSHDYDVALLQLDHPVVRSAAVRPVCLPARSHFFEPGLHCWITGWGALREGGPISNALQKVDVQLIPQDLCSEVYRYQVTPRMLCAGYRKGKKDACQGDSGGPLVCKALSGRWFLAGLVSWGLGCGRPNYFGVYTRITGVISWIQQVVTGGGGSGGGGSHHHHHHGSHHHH

T3: mouse matriptase-2 ECD protein his tag (mouse, UniProt Q9DBI0 80-811)
T3 construct: aa 80-811 of Q9DBI0 with C-terminal linker and His tag; also called mouse MTP-2 ECD; moMTP-2
T3 sequence: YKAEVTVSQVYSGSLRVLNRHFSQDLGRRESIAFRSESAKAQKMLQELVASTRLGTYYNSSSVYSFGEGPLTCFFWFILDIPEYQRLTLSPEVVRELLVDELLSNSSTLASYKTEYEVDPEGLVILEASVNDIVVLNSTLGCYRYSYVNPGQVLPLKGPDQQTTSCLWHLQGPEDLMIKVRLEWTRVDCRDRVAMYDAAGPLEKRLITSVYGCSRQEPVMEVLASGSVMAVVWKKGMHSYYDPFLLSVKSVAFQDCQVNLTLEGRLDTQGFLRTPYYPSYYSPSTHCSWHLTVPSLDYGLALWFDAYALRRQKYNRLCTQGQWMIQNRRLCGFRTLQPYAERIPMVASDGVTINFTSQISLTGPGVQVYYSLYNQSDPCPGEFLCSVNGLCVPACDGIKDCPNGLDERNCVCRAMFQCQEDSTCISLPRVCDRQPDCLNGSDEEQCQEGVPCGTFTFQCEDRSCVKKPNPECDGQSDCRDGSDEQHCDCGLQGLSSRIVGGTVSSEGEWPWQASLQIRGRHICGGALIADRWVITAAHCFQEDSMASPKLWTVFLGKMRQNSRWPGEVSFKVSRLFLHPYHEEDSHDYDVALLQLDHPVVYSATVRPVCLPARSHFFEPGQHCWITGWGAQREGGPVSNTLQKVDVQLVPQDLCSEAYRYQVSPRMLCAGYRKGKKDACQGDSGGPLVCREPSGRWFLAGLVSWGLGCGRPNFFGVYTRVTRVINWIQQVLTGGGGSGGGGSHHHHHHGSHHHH


Experiments:
[1] = biological target: T1, human matriptase-2 mask ECD protein his …; test: SPR, antibody captured, headless ECD as analyte
Description: (§1) Off-rate screening was performed by surface plasmon resonance (SPR), using a Biacore 8K system (GE Healthcare). Anti-human Fc mix (˜1000 RU) were immobilised in both active and reference channels in HBS-P+ buffer (GE BR100671) pH 7.4. Anti-MTP-2 hulgG4PE antibodies were then captured for 60 sec at 10 μl/min at 1 μg/ml concentration (approximatively 35 and 50 RU were captured) only on the active channel. MTP-2 ECD protein analytes were then injected (at 100, 25, 6.25, 1.56 and 0 nM concentrations) for 120 sec (association time) at 30 μl/min and dissociation monitored for 600 sec. Multiple cycle kinetics mode was used with all 8 channels being used. Reference and background were subtracted from the sensorgrams for each antibody and data was fitted using a 1:1 interaction model in the Biacore evaluation software. Rmax, ka, kd globally fitted, RI=0.
Binding was also assessed using the above SPR method with “headless” huMTP-2 ECD 78-576 aa instead of the full ECD. Headless ECD corresponds to the MTP-2 ECD without the serine protease domain.

[2] = biological target: T2, human matriptase-2 ECD protein his tag; test: SPR, his-tagged MTP-2 ECD protein (Table W); true KD could not be measured accurately, very slow off-rate
Description: as §1
(§2) NORI-011, NORI-008, NORI-003 and NORI-006 were all found to have cross-reactive binding to human, mouse, cyno and rat MTP-2 ECD proteins. […] The true KD value for NORI-008 could not be measured accurately for human or mouse MTP-2 due to a very slow off-rate.

[3] = biological target: T3, mouse matriptase-2 ECD protein his tag; test: as above
Description: as §1, §2

| Binder | binding result [1] | Kd [2] [pM] | Kd [3] [pM] |
| --- | --- | --- | --- |
| NORI-013 (antibody, human IgG4 S228P, lambda, V domains shown, human IgG4PE, lambda) VH: EVQLVESGGGLIQAGRSLRLSCAASGFTFDEHVIYWVRQIPGKGLEWISSISWKSDIIAYADSVKGRFTISRDNAKNALYLQMNSLRAEDTALYYCAREKDGDFYYYYFAMDVWGQGTTVTVSS VL: QSALTQPPSASGSPGQSVTLSCTGTSSDVGYYNYVSWYLQHPGKAPKLMIYEVSKRPSGVPDRFSGSKSANTASLTVSGLQAEDEADYYCSSYAGSNKVVFGGGTKVTVLG | no binding (tested: analyte up to 100 nM) |  |  |
| NORI-014 (antibody, human IgG4 S228P, lambda, V domains shown, human IgG4PE, lambda) VH: EVQLVESGGGLIQAGRSLRLSCAASGFTFDEHVMYWVRQIPGKGLEWISSITWKSDIIAYADSVKGRFTISRDNAKNALYLQMNSLRAEDTALYYCAREKDGDFYYYYFAMDVWGQGTTVTVSS VL: QSALTQPPSASGSPGQSVTLSCTGTSSDVGYYNYVSWYLQHPGKAPKLMIYEVSKRPSGVPDRFSGSKSANTASLTVSGLQAEDEADYYCSSYAGSNKVVFGGGTKVTVLG | no binding (tested: analyte up to 100 nM) |  |  |
| NORI-008 (antibody, human IgG4 S228P, kappa, V domains shown, human IgG4PE, kappa, in the in vitro assays; a mouse IgG1 format was used in one in vivo study only; also called NORI-008 hulgG4PE; NORI-008 IgG) VH: QVQLQESGPGLVKPSETLSLTCSVSGGSVSSGRYYWTWIRQPPGKGLEWIGYISNSGNTNYNPSLKSRVTISLDTSKKQFSLSLSAVTAADTAVYYCARGFIYDYWFDPWGQGSLVTVSS VL: DSQMTQSPSSLSASVGDRVTITCQASQDIDNYLNWYQQRPGKAPKLLIYDASKLETGVPSRFSGSGSGTDFTFTISSLQPEDFATYYCQQYGNLPITFGQGTRLDIKR |  | 0.0169 | 0.206 |

— patent publication US20230025129A1 (KYMAB, published 2023)
